Measurements reported in US20250066503A1, “CELL INJURY INDUCING THERAPEUTIC DRUG FOR USE IN CANCER THERAPY” (CHUGAI SEIYAKU KABUSHIKI KAISHA, priority 2016, published 2025).

How the values were obtained:
NCI-H446 tumor tissues [1] = experiment: Tumor infiltrating lymphocyte (TIL) analysis of tumor tissues; assay type: in vivo, humanized NOG mice; details: in combination with a chemotherapeutic agent, paclitaxel or capecitabine; sixth day after antibody-38 administration; compared to either alone
Method: (§1) The tumor samples were prepared as follows. The tumor samples when antibody-38 was used in combination with a chemotherapeutic agent in the humanized NOG mouse model were prepared by the procedure described below. 2.5 Gy of X ray was irradiated to NOG mice (In-Vivo Science Inc., Y). On the following day, 1×10^5 CD34-positive hematopoietic stem cells which are derived from umbilical cord blood were transplanted into the NOG mice by tail vein injection. After 16 to 20 weeks, each of human cancer cell lines (MKN45 and NCI-H446) was mixed with Matrigel™ Basement Membrane Matrix, and transplanted subcutaneously into the humanized NOG mice. The day of transplantation was defined as Day 0.
(§2) When tumor was established, the mice were separated into groups based on tumor size and body weight. Antibody-38 and the pharmaceutical agents for use in combination were administered according to the dose and dosing regimen described in Table 21. The mice were euthanized at the timing described in Table 21, and tumor was excised and preserved for use in tumor infiltrating lymphocyte (TIL) analysis, pathological analysis, or RNA analysis.
TIL analysis was performed as follows. Tumor tissues which were dissected from mice transplanted with NCI-H446 described in Table 21 on the sixth day after antibody-38 administration were dissociated into cells by enzyme treatment using gentle MACS™ Octo Dissociator. […]

[2] = test system: MKN74, FU-97, SNU-1, SCC152, KYSE70, PC-10, HuH-7, TOV-21G, RMG-1 and STM-03 xenograft tumors; experiment: In vivo drug efficacy, NOD scid/T cell-injected model, xenograft tumors of various cancer types; parameters: species or system NOD scid mice; details: 1 mg/kg once through the tail vein; compared to the vehicle-administered group
Method: (§3) Methods called an NOD scid/T cell-injected model, a humanized NOG mouse model, and a human CD3εδγ gene-modified mouse model were used in the in vivo drug efficacy evaluation. Assay using an NOD scid/T cell-injected model was performed as follows. […] T cells expanded by culturing human PBMCs in vitro were injected into the NOD scid mice with confirmed tumor establishment. The mice were treated by administering bispecific antibody-38 and bispecific antibody-30, -31, -32, or -33. Assay using a humanized NOG mouse model was performed as follows. CD34-positive hematopoietic stem cells derived from umbilical cord blood were transplanted into NOG mice by tail vein injection. Human T cells are constantly supplied in the mice, which are called humanized NOG mice. The PC-10 cell line was transplanted into humanized NOG mice. The humanized NOG mice with confirmed establishment of PC-10 tumor were treated by administering antibody-38. Assay using a human CD3εδγ gene-modified mouse model was performed as follows. Cells of mouse-derived cell line forced to express human GPC3 were transplanted into a human CD3εδγ gene-modified mouse model, which had been prepared according to Reference Example 10. The human CD3εδγ gene-modified mice with confirmed tumor establishment were treated by administering antibody-38. […]

[3] = test system: MKN45 and NCI-H446 tumor tissues; experiment: Comprehensive RNA analysis of tumor tissues using nCounter; assay type: in vivo, humanized NOG mice; details: in combination with paclitaxel or capecitabine; compared to antibody-38 or the chemotherapeutic agent alone
Method: RNA was extracted from tumor samples after administration of paclitaxel, cisplatin, or capecitabine and antibody-38. Comprehensive RNA analysis using nCounter, tumor infiltrating lymphocyte (TIL) analysis, and pathological analysis were performed as follows.
as §1
When tumor was established, the mice were separated into groups based on tumor size and body weight. Antibody-38 and the pharmaceutical agents for use in combination were administered according to the dose and dosing regimen described in Table 21. […]
RNA analysis was performed as follows. RNA was extracted (miRNeasy Mini Kit, QIAGEN) from the above-described tumor samples and the RNA concentrations were determined (NanoDrop, Thermo Fisher Scientific). […]

PC-10 xenograft tumor = experiment: In vivo drug efficacy, humanized NOG mouse model; parameters: species or system humanized NOG mice; details: 0.008, 0.04, 0.2, or 1 mg/kg once through the tail vein, compared to the vehicle-administered group
Method: as §3

NCI-H446 tumor tissues [4] = experiment: Histopathological evaluation of HE-stained tumor tissues; assay type: in vivo, humanized NOG mice
Method: as §1, §2
With respect to histological analysis of tumor tissues, tumor samples from mice six days after administration of antibody-38 and paclitaxel were fixed in 10% formaldehyde neutral buffer solution. […]

B1: antibody-38: anti-human CD3ε chain and anti-human GPC3 bispecific antibody; H chains SEQ ID NO: 385 and 402, common L chains SEQ ID NO: 410 (antibody)
heavy 1: QVQLVQSGAEVKKPGASVTVSCKASGYTFTDYEMHWIRQPPGEGLEWIGAIDGPTPDTAYSEKFKGRVTLTADKSTSTAYMELSSLTSEDTAVYYCTRFYSYTYWGQGTLVTVSSASTKGPSVFPLAPCSRSTSESTAALGCLVKDYFPEPVTVSWNSGALTSGVHTFPAVLQSSGLYSLSSVVTVPSSSLGTQTYTCNVDHKPSNTKVDKRVESKYGPPCPPCPAPEFRGGPKVFLFPPKPKDTLMISRTPEVTCVVVDVSQEDPEVQFNWYVDGVEVHNAKTKPREEQFASTYRVVSVLTVLHQDWLNGKEYKCKVSNKGLPSSIEKTISKAKGQPREPQVYTLPPSQEEMTKNQVSLTCLVKGFYPSDIAVEWESNGQPENNYKTTPPVLDSDGSFFLYSKLTVDKSRWQEGNVFSCSVMHEALHNHYTQESLSLSP
heavy 2: QVQLVESGGGVVQPGGSLRLSCAASGFTFSNAWMHWVRQAPGKGLEWVAQIKDKSQNYATYVAESVKGRFTISRADSKNSIYLQMNSLKTEDTAVYYCRYVHYAAGYGVDIWGQGTTVTVSSASTKGPSVFPLAPCSRSTSESTAALGCLVKDYFPEPVTVSWNSGALTSGVHTFPAVLQSSGLYSLSSVVTVPSSSLGTKTYTCNVDHKPSNTKVDKRVESKYGPPCPPCPAPEFRGGPKVFLFPPKPKDTLMISRTPEVTCVVVDVSQEDPEVQFNWYVDGVEVHNAKTKPREEQFASTYRVVSVLTVLHQDWLNGKEYKCKVSNKGLPSSIEKTISKAKGQPREPQVYTLPPSQKEMTKNQVSLTCLVKGFYPSDIAVEWESNGQPENNYKTTPPVLDSDGSFFLYSKLTVDKSRWQEGNVFSCSVMHEALHNHYTQKSLSLSP
light: DIVMTQSPLSLPVTPGEPASISCRSSQPLVHSNRNTYLHWYQQKPGQAPRLLIYKVSNRFSGVPDRFSGSGSGTDFTLKISRVEAEDVGVYYCGQGTQVPYTFGQGTKLEIKRTVAAPSVFIFPPSDEQLKSGTASVVCLLNNFYPREAKVQWKVDNALQSGNSQESVTEQDSKDSTYSLSSTLTLSKADYEKHKVYACEVTHQGLSSPVTKSFNRGEC
modifications: An artificially generated sequence
For B1, the “cell populations expressing T cell markers, activated T cell markers, and proteins involved in cytotoxic activity” value (NCI-H446 tumor tissues [1]) was “increased”, the anti-tumor effect [2] was “evident anti-tumor effect” and the “expressions of genes involved in the progress of cell cycle” value [3] was “suppressed”. For the same molecule, the “expressions of immune cell markers, chemokines, cytokines, genes involved in cell death, genes involved in cell cycle regulation” value [3] was “increased”, the anti-tumor effect (PC-10 xenograft tumor) was “evident, dose-dependent anti-tumor effect” and the immune cell infiltration (NCI-H446 tumor tissues [4]; antibody 38 administered, six days after administration) was “observed around the tumor periphery”. The “immune cell infiltration area” value (NCI-H446 tumor tissues [4]; antibody-38 in combination with paclitaxel) was “expanded”.
